Assay results reported in FireProtDB (doi:10.1021/bi049320b).

B1: Barstar, P11540 (parent)
chain: MKKAVINGEQIRSISDLHQTLKKELALPEYYGENLDALWDCLTGWVEYPLVLEWRQFEQSKQLTENGAESVLQVFREAKAEGCDITIILS

Variants of: B1
Conditions: Bacillus amyloliquefaciens, pH 8, 25 °C, Urea, Fluorescence, Tris-HCl 30 mM, structure 1BTA, whole UniProt chain shown

Variant | ddG of mutation (higher = less stable) (KCl 0.5 M) [kcal/mol] | denaturant m value (KCl 0.5 M) [kcal/mol/M] | unfolding free energy (KCl 0.5 M) [kcal/mol] | ddG of mutation (higher = less stable) (KCl 1.0 M) [kcal/mol] | denaturant m value (KCl 1.0 M) [kcal/mol/M] | unfolding free energy (KCl 1.0 M) [kcal/mol] | ddG of mutation (higher = less stable) [kcal/mol] | denaturant m value [kcal/mol/M] | unfolding free energy [kcal/mol] | ddG of mutation (higher = less stable) (KCl 1 M) [kcal/mol] | denaturant m value (KCl 1 M) [kcal/mol/M] | unfolding free energy (KCl 1 M) [kcal/mol] | ddG of mutation (higher = less stable) (KCl 0.5M) [kcal/mol] | denaturant m value (KCl 0.5M) [kcal/mol/M] | unfolding free energy (KCl 0.5M) [kcal/mol]
MKKAVINGEQIRSISDLHQTLKQELALPEYYGENLDALWDCLTGWVEYPLVLEWRQFEQSKQLTENGAESVLQVFREAKAEGCDITIILS [K23Q] | 1.1 | 1.12 | 4.7 | 1.1 | 1.14 | 5.8 | 0.5 | 1.22 | 4.3 | – | – | – | – | – | –
MKKAVINGEQIRSISDLHQTLQKELALPEYYGENLDALWDCLTGWVEYPLVLEWRQFEQSKQLTENGAESVLQVFREAKAEGCDITIILS [K22Q] | 1.2 | 1.18 | 4.6 | – | – | – | 0.7 | 1.32 | 4.1 | 1.2 | 1.12 | 5.7 | – | – | –
MKKAVINGEQIRSISDLHQTLAKELALPEYYGENLDALWDCLTGWVEYPLVLEWRQFEQSKQLTENGAESVLQVFREAKAEGCDITIILS [K22A] | 0.8 | 1.1 | 5 | – | – | – | 1.4 | 1.02 | 3.4 | 0.8 | 1.11 | 6.1 | – | – | –
MKKAVINGEQIRSISDLHQTLKKELALPEYYGENLDALWDCLTGWVEYPLVLEWRQFEQSKQLTENGAESVLQVFREAAAEGCDITIILS [K79A] | -0.2 | 1.18 | 6 | – | – | – | – | – | – | -0.1 | 1.16 | 7 | – | – | –
MKKAVINGEQIRSISDLHQTLKKELALPEYYGENLDALWDCLTGWVEYPLVLEWRQFEQSKQLTENGAESVLQVFREAQAEGCDITIILS [K79Q] | -0.3 | 1.14 | 6.1 | – | – | – | -0.4 | 1.14 | 5.2 | -0.3 | 1.14 | 7.2 | – | – | –
MKKAVINGEQIRSISDLHQTLKKELALPEYYGENLDALWDCLTGWVEYPLVLEWRQFKQSKQLTENGAESVLQVFREAKAEGCDITIILS [E58K] | 0.9 | 1.14 | 4.9 | 0.9 | 1.16 | 6 | 0.4 | 1.25 | 4.4 | – | – | – | – | – | –
MKKAVINGEQIRSISDLHQTLKKELALPEYYGENLDALWDCLTGWVEYPLVLEWRQFEQSKQLTENGAESVLQVFLEAKAEGCDITIILS [R76L] | -0.7 | 1.13 | 6.5 | -0.7 | 1.15 | 7.6 | -0.7 | 1.13 | 5.5 | – | – | – | – | – | –
MKKAVINGEQIRSISDLHQTLKKELALPEYYGENLDALWDCLTGWVEYPLVLEWRQFEQSKQLTENGAESVLQVFQEAKAEGCDITIILS [R76Q] | – | – | – | – | – | – | – | – | – | 0.4 | 1.17 | 6.5 | 0.4 | 1.15 | 5.4
MKKAVINGEQIRSISDLHQTLKKELALPEYYGENLDALWDCLTGWVEYPLVLEWRQFEQSLQLTENGAESVLQVFREAKAEGCDITIILS [K61L] | -0.4 | 1.17 | 6.2 | -0.4 | 1.16 | 7.3 | -1 | 1.3 | 5.8 | – | – | – | – | – | –
MKKAVINGEQIRSISDLHQTLKKELALPEYYGENLDALWDCLTGWVEYPLVLEWRQFEQSEQLTENGAESVLQVFREAKAEGCDITIILS [K61E] | 1.3 | 1.19 | 4.5 | 1.4 | 1.13 | 5.5 | 0.6 | 1.44 | 4.2 | – | – | – | – | – | –
